± gives the standard error. This sample holds only a part of the variants without activity.
B1: glmS ribozyme (parent)
chain: AUAAAAGCGCCAGAACUACAGAAAUGUAGUUGACGAGGAGGAGGUUUAUCGAAUUUUCGGCGGAUGCCUCCAAA

Columns and labels:
Conditions in all cases: with glucosamine-6-phosphate
glucosamine-6-phosphate [1] = variants of: B1; experiment: self-cleavage kobs at 40 uM GlcN6P; higher = faster cleavage; RNA array
How it was run: (§1)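 The measurements used barcoded ribozyme variants on sequenced MiSeq chips, transcribed in situ by E. coli RNA polymerase and tracked at 37 °C with a hybridised Cy3 probe. Glucosamine-6-phosphate, 40 μM to 10 mM in HEPES/KCl/Mg(OAc)2 buffer, was flowed in while tiles were imaged over ~14 h. Baseline-normalised signals, also normalised to non-cleaving reference variants, gave per-tile medians that were fit to one- or two-exponential decays for kobs. kcat and KM resulted from weighted Michaelis–Menten fits across concentrations.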

glucosamine-6-phosphate [2] = variants of: B1; experiment: self-cleavage kobs at 160 uM GlcN6P; higher = faster cleavage; RNA array
How it was run: as §1

glucosamine-6-phosphate [3] = variants of: B1; experiment: self-cleavage kobs at 640 uM GlcN6P; higher = faster cleavage; RNA array
How it was run: as §1

glucosamine-6-phosphate [4] = variants of: B1; experiment: self-cleavage kobs at 10000 uM GlcN6P; higher = faster cleavage; RNA array
How it was run: as §1

glucosamine-6-phosphate [5] = variants of: B1; experiment: self-cleavage kobs at 2500 uM GlcN6P; higher = faster cleavage; RNA array
How it was run: as §1

Row | Variant | self-cleavage kobs at 40 uM GlcN6P (glucosamine-6-phosphate [1]) | self-cleavage kobs at 160 uM GlcN6P (glucosamine-6-phosphate [2]) | self-cleavage kobs at 640 uM GlcN6P (glucosamine-6-phosphate [3]) | self-cleavage kobs at 10000 uM GlcN6P (glucosamine-6-phosphate [4]) | self-cleavage kobs at 2500 uM GlcN6P (glucosamine-6-phosphate [5])
1 | AUAAAAGCGCCAUAACUACAGAAAUGUAGUUGACUAGGAGGAGGUUUAUCGAAUUUUCGGCGCUUGCCUCCAAA | < 1e-05 s⁻¹ |  |  |  | 
2 | AUAAAAGCGCCAGAACUACAGAAAUGUAGUUGACGAGGAGGAGGAUUAUCGAAUUUUCGUCGGAUGCGUUCAAA | < 1e-05 s⁻¹ |  |  |  | 
3 | AUAAAAGCACCAGAACUACAGAAAUGUACUUGACGAGGAGGAGGUUUAUCGAAUUUUCGGCGGAUGCCUCCAAA | < 1e-05 s⁻¹ | < 1e-05 s⁻¹ | < 1e-05 s⁻¹ | < 1e-05 s⁻¹ | 
4 | AUAAAAGCGCCAGAAUUACAGAAAUGUAGGUGACGAGGAGGAGGUUUAUCGAAUUUUCGGCGGAUGCCUCCAAA | 4.04e-05 ± 1.4e-05 s⁻¹ | 6.14e-05 ± 1.5e-05 s⁻¹ | 0.000244 ± 6.5e-05 s⁻¹ | 0.00235 ± 0.00062 s⁻¹ | 0.000944 ± 0.00032 s⁻¹
5 | AUAAAAGCGCCAGAACUACAGAAAUGUAGUUGACUAGGAGGAGGUUUAUCGAAUUUUCGGCGGAUGGCUCAAAA | < 1e-05 s⁻¹ |  |  |  | 
6 | AUAAAAGCGCCAGAACUACAGAAAUGUAGUUGACGAGGAGCAGGUUUAUCGAAUUUUCGGGGGAUGCCUCCAAA | < 1e-05 s⁻¹ | < 1e-05 s⁻¹ | < 1e-05 s⁻¹ |  | < 1e-05 s⁻¹
7 | AUAAAAGCGCUAGAACUACAGAAAUGUAGUUGACGAGGAGCAGGUUUAUCGAAUUUUCGGCGGAUGCCUCCAAA | < 1e-05 s⁻¹ | < 1e-05 s⁻¹ |  |  | 
8 | AUAAAAGCGCCAGAACUACAGAAAUGUAGCUGACCAGGAGGAGGUUUAUCGAAUUUUCCGCGGAUGCCUCCAAA | < 1e-05 s⁻¹ |  |  | < 1e-05 s⁻¹ | 
9 | AUAAAUGCGCCAGAUCUACAGAAAUGUAGUUGACGGGGAGGAGGUUUAUCGCAUUUUCGGCGGAUGCCUCCAAA | < 1e-05 s⁻¹ |  |  |  | < 1e-05 s⁻¹
10 | AUAAAAGCGCCAGAACUACAGAAAUGUACUUGACGAGGAGGAGGUUUAGCGAAUUUUAGGCGGAUGCCUCCAAA | < 1e-05 s⁻¹ |  |  |  | 
11 | AUAAAAGCGCCAGAACUACAGAAAUGUAAUUUAGGAGGAGGAGGUUUAUAGAAUUUUCGGUGGAUGCCUCCAAA | < 1e-05 s⁻¹ |  |  | < 1e-05 s⁻¹ | 
12 | AUAAAAAGCGCCAGAACACAGAAAUGUAGUAGACGAGGAGGAGGUUUAUCGAAUUUUCGGCGGAUGCCUCCAAA | 0.000115 ± 4.2e-05 s⁻¹ |  |  | 0.00555 ± 0.0017 s⁻¹ | 
13 | AUAAAAGCGCCAGAACUACAGAAAUGUAGUUGACGAGGAGGAGGUUUAUCGAAUUUUCGCCGGAGGCCUCCAAA | < 1e-05 s⁻¹ | < 1e-05 s⁻¹ | < 1e-05 s⁻¹ | < 1e-05 s⁻¹ | 
14 | AUAAAAGCCCCAGAAUUACAGAAAUGUAGUUGACGAGGAGGAGGUUGAUCGAAUUUUCGGUGGAUGCCUCCAAA | < 1e-05 s⁻¹ |  |  | < 1e-05 s⁻¹ | 
15 | AUAAAAGCGCCAGAACUACAGAAAUGUAGCCGACGAGGAGGAGGUUUAUCGAAUUUUCGGCGGAUGCCUCCAAA | 3.3e-05 ± 1.1e-05 s⁻¹ | 0.000413 ± 7.4e-05 s⁻¹ | 0.000788 ± 0.00016 s⁻¹ | 0.00328 ± 0.00041 s⁻¹ | 0.00125 ± 0.00016 s⁻¹
16 | AUAAAGGCGCCAGAACUACAGAAAUGUAGUUGACGAGGAGGAGGUUUAUCGAAUUUUAGGCGGAUGCCUCCAAA | < 1e-05 s⁻¹ | < 1e-05 s⁻¹ | < 1e-05 s⁻¹ |  | < 1e-05 s⁻¹
17 | AUAAAAGCGCCAGAACUACAGAAAUGUAGUUGACGAGGGGGAGGUUUAUCGAAUUUUCGGCGGAUGCUUCCAAA | 0.000529 ± 5e-05 s⁻¹ | 0.000783 ± 0.00025 s⁻¹ | 0.00223 ± 0.0005 s⁻¹ | 0.0156 ± 0.003 s⁻¹ | 0.00387 ± 0.0012 s⁻¹
18 | AUAAAAGCGCCAGAACUACAGAAAUGUAGUUGACCAGGAGGAGGUUUAUCGAAUUGUAGGCGGAUGCCACCAAA | < 1e-05 s⁻¹ | < 1e-05 s⁻¹ |  |  | < 1e-05 s⁻¹
19 | AUAAAAGCGCCAGAACUACAGAAAUGUAGUUGACGAGGAGGAGGUUUAUCGAAUAUUCGGCGGAUGUCUCCAAA | 0.000401 ± 8.2e-05 s⁻¹ | 0.000667 ± 0.00022 s⁻¹ | 0.00589 ± 0.0022 s⁻¹ | 0.0154 ± 0.0038 s⁻¹ | 
20 | AUAAAAGCGCCCGAACUACAGAAAUGUAGUUGACGAGGAAGAGGUUUAUCGAAUUUUUGGCGGAUGCCUCCAAA | < 1e-05 s⁻¹ | < 1e-05 s⁻¹ |  |  | 
21 | AUAAAAGCGCCAGAACUACAGAAAUGUAGUUUACGAGGAGGAGGUUUAUCGAAUUUUCGGCGUAUGCCUCCAAA | < 1e-05 s⁻¹ |  |  | < 1e-05 s⁻¹ | < 1e-05 s⁻¹
22 | AUAAAAGCGCCAGAACUACAGAAAUGUAGUUUACGCGGAGGAGGUUUAUCGAUAUUUCGGCGUAUGCCUCCAAA | < 1e-05 s⁻¹ |  |  | < 1e-05 s⁻¹ | 
23 | AUAAAACCGCCAGAACUACAGAAAUGUAGUUGACGAGGAGGAGGUUUAUCGAAUGUUCGGCGGAUGCCUCCAAA | < 1e-05 s⁻¹ |  |  | < 1e-05 s⁻¹ | 
24 | AUAAAAGCGCCAGAACUACAGAAAUGUAGUAGGCGAGGUGGAAGUUUUUCGAAUUUUCGGCGGAUGCCUCCAAA | < 1e-05 s⁻¹ |  |  | < 1e-05 s⁻¹ | 
25 | AUAAAAGCGCCAGAACUACAGAAAUGUAGUUGACGAGGAGGAGGUUUAUCGAAUUCUCGGCGGAUGCUUCCAAA | < 1e-05 s⁻¹ |  | < 1e-05 s⁻¹ |  | 
26 | AUAAAAACGCCAGAACUACAGAAAUGUAGUUGACGAGGAGGAGGUUUAUCGAAUUUUCGGCGGAUUCCUCCAAA | < 1e-05 s⁻¹ | < 1e-05 s⁻¹ |  | < 1e-05 s⁻¹ | < 1e-05 s⁻¹
27 | AUAAAAGCGCCAGAACUACAGAAAUGUAGUUGACGAGGAGGAGGUUUAUCUACUUUUCGGCGGAUGCCUCCAAA | < 1e-05 s⁻¹ | < 1e-05 s⁻¹ | < 1e-05 s⁻¹ |  | 
